Test results taken from patent US20060241020A1, “Protein tyrosine phosphatase inhibitors” (Applied Research Systems ARS Holdings N.V., priority 2002, published 2006).
Positions count from the first letter of the chain named. Entries after “also recorded” stand apart in the source; their conditions may differ. Each block holds one compound with its values, some of them ahead of it. Square brackets hold non-standard residues; d marks the D form. Ends that are not written are not given here. pY = N[C@@H](Cc1ccc(OP(=O)(O)O)cc1)C(=O)O

Tests used:
SHP1 = SHP1 (Homo sapiens, UniProt P29350); conditions: reference (40); cited from earlier work
[1] = molecular target: T1, PTP-1B DA (trapping mutant) (Homo sapiens, UniProt P18031, D181A); assay: SPOT analysis, membrane peptides probed with radiolabeled PTP; format: binding; conditions: for SPOT binding to PTP1B trapping mutant, double phosphorylated peptide: two phosphorylated Tyr, compared with single ones; for SPOT binding to PTP1B trapping mutant: 15-mer peptides with phospho-Tyr on membrane
T1 construct: specific primers corresponding to the beginning and the end of the catalytic domain of every PTPs were used; made in house; host or cells: Escherichia coli BL21 (codon +)
T1 sequence (P18031 3-277 D181A limits assumed): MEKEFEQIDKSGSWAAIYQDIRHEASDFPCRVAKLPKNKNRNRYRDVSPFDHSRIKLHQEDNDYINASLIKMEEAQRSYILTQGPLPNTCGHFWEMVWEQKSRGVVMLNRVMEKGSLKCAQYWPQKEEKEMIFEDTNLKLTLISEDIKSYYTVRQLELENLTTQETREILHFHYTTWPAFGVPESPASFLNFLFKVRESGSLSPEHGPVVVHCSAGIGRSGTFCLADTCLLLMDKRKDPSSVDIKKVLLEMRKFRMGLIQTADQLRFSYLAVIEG
Protocol: (§1) Labelling of GST-PTP for the SPOT analysis was performed as follows: 2 to 5 μg of GST fusion proteins were bound to glutathion-sepharose beads (Amersham Pharmacia Biotech) at 4° C. After washes GST fusion proteins were radiolabeled by 50 units of protein kinase from bovine heart (Sigma) in presence of 35 μCi of (γ-32P) ATP in PKA buffer (20 mM Tris pH 7.5, 100 mM NaCl, 12 mM MgCl2, 1 mM DTT) for 30 minutes on ices. After washes, fusion proteins were eluted from beads by 10 mM free glutathione in 50 mM Tris, pH 8.0 (28).
(§2) Peptides were manually synthesized on derivatized cellulose membrane provided by Sigma-Genosys, which also provided the 20 Fmoc-amino acids active esters. Fmoc-phosphotyrosines from Novabiochem (#04-12-1156) were incorporated in presence of the coupling reagent, N,N′-Diisopropylcarbodiimide (DIC; Sigma) and hydroxybenzotriale (HOBt; Fluka; Espanel et al., submitted).
(§3) Membranes were blocked (at least 2 hours) and probed at 4° C. in Western wash buffer (10 mM Tris, pH 7.4, 0.1% Triton X-100 and 150 mM NaCl)+SPOT blocking buffer (Sigma-Genosys). After 2 hours, membranes were washed several times in Western wash buffer and were autoradiographed.

PTP-Sap1 R88N = assay: as above; format: binding; conditions: 15-mer peptides with phosphotyrosine on membrane
Protocol: as §1, §2, §3

PTP1B trapping mutant [2] = molecular target: T2, PTP1B trapping mutant (Homo sapiens, UniProt P18031, D181A); assay: ELISA of phosphorylated phage clones on coated GST-PTP; format: binding; conditions: PTP1B selected phage clones, src-phosphorylated
T2 construct: These two restriction sites were used to clone the catalytic domain in frame into a pGEX4TK vector (Pharmacia); made in house; host or cells: Escherichia coli BL21 (codon +)
T2 sequence (P18031 3-277 D181A limits assumed): T1 sequence (P18031 3-277 D181A limits assumed)
Protocol: (§4) Single clones were amplified as described previously. The coating was done with GST-PTP or GST alone in PBS (2 μg per well in a 96 well plate format). Phosphorylation of the phages was performed following the described protocol (with and without 3 U of src kinase, in order to check the phospho-Tyr specificity of the recognition, thus be sure that positives were catalytic domain specific as shown in (30)) and during this process, each well was blocked with a solution of 5% fat free powder milk in PBS. Wells were washed 5 times in PBS-Tween® 0.5% and phages were incubated with the PTP-GST or GST in 100 μl Trapping Buffer (20 mM Tris pH 7.5, 150 mM NaCl and 1 mM EDTA) for 2 hours at 4° C. Wells were extensively washed and blocked for 1 hour in PBS-5% Milk.

PTP1B trapping mutant [3] = molecular target: T2, PTP1B trapping mutant; assay: Panning of the tyrosine-biased phage library and sequencing of trapped clones; format: binding; conditions: after three pannings, sequenced trapped phages
Protocol: (§5) Phages (10^9-10^10) were incubated for three hours at 30° C. in the kinase buffer (25 mM Tris pH7.5, 5 mM MgCl2, 2.5 mM MnCl2, 2.5 mM DTT and 1 mM ATP) in a total volume of 20 μl. […] Therefore, the total library was phosphorylated and passed through an antiPTyr column (Upstate). The bound phages were eluted with phenylphosphate, and the clones were passed twice again in the column. The amplified Tyrosine-carrying phages were then stocked at 4° C. in TE and used for the trapping experiment (see below). […] Furthermore, no sequences were found twice. […] This was checked following our phosphorylation protocol and using (γ-32P) ATP as a tracer.
(§6) Phages (10^8 to 10^9) were incubated in kinase buffer (20 mM Tris pH7.5, 5 mM MgCl2, 2.5 mM MnCl2, 1 mM ATP, 2.5 mM DTT and with or without 3 Units of src kinase) for 3 hours at 30° C. The p60src, purified from Baculovirus, was purchased from Upstate Biotech. Gluthation-Sepharose beads were pre-coated with 3 μg of either GST or PTP-GST for 4 hours at 4° C. in a solution of Trapping Buffer (20 mM Tris pH 7.5, 150 mM NaCl and 1 mM EDTA) with 1% BSA final. The phages were first pre-cleared using GST-beads for 30 minutes at 4° C., spun down and the supernatant was incubated with the coated PTP-GST for 1.5 hours at 4° C. with a constant shaking. Finally beads were spun down and washed several times (5 times for the first panning, then 10 times) with a solution of PBS with 0.25% Tween® final. Phages were eluted from PTP-GST by an acidic treatment (glycine buffer, pH 2.7) for 10 minutes at RT with a constant shaking, beads were spun down and phages were recovered in the supernatant. One tenth volume of a 1 M Tris pH 9.0 solution was added in order to restore the pH. Phages were finally titred in both fractions (bound and unbound) and the rest of the bound fraction was used to infect XL1 MRF′ Bacteria (Stratagene) following described procedures (24). The day after, cells were scraped and phages were amplified using helper phage M13K07 (Pharmacia) using the manufacturer's procedures.
(§7) When an increase in the number of trapped clones was observed, phages where purified as single clones and colony-PCR was performed using phage primers, forward: 5′ATG AAA AAG TCT TTA GTC CTC3′ and reverse: 5′CAG CTT GAT ACC GAT AGT TGC3′. The PCR products were then purified and sequenced using the same primers. Sequences were read in both direction using SeqmanII Software.

WT PTP1B = molecular target: T3, WT PTP1B (Homo sapiens, UniProt P18031); assay: Dephosphorylation assay on GST-PEP constructs; format: biochemical; conditions: not shown
T3 construct: These two restriction sites were used to clone the catalytic domain in frame into a pGEX4TK vector (Pharmacia); GST (N); made in house; host or cells: Escherichia coli BL21 (codon +)
T3 sequence (P18031 3-277 limits assumed): T1 sequence (P18031 3-277 D181A limits assumed) with A179D
Protocol: PEP-GST constructs were prepared as follows: the primers used correspond to the pVIII capsid sequence of M13+two restriction sites (XhoI and NotI): 5′TATCTCGAGTCTTTCGCTGCTGAGGGT GA3′ for the sense and 5′ATAGCGGCCGCTTGCAGGGAGTCAAAGGCC G3′ for the antisense. The DNA of the phage was directly amplified by adding 10^9 phages to the PCR mix. After PCR using Herculase Polymerase (Stratagene), the DNA fragments (100 bp) were purified using Microcon® PCR (Millipore) and gel extraction was performed with Utrafree®-DA (Millipore). The cloning and the protein purification were finally accomplished following the same protocol as for the PTPs, with the only difference that TKB1 (Stratagene) bacteria were transformed and a single colony was grown and induced for protein production and phosphorylation exactly as described by the manufacturer. Again, all constructs were checked by DNA sequencing before protein production.
100 ng of PEP-GST construct was incubated with 10 ng of PTP wild type in PTP buffer (50 mM Hepes pH 7.4, 0.05% Nonidet NP-40 and 1 mM DTT). The reaction was stopped by mixing equal volume aliquots with a solution of 50 mM vanadate at different laps of time. […]

Sap1 = molecular target: T4, Sap1 (Homo sapiens, UniProt Q9HD43); assay: Km of example phosphopeptide substrates (Table IX summary); format: biochemical; conditions: phosphopeptide as Sap1 substrate
T4 sequence (Q9HD43 820-1079 limits assumed): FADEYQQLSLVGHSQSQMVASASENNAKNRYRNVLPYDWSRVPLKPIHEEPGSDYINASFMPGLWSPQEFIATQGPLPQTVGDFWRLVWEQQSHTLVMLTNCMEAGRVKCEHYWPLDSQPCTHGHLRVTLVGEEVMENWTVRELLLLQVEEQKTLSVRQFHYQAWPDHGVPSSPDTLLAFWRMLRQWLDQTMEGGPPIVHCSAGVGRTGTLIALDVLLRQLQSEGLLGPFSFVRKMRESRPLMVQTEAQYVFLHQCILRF

PTP-Sap1DA = molecular target: T5, PTP-Sap1DA (Homo sapiens, UniProt Q9HD43, D986A); assay: SPOT analysis, membrane peptides probed with radiolabeled PTP; format: binding
T5 construct: specific primers corresponding to the beginning and the end of the catalytic domain of every PTPs were used; made in house; host or cells: Escherichia coli BL21 (codon +)
T5 sequence (Q9HD43 820-1079 D986A limits assumed): T4 sequence (Q9HD43 820-1079 limits assumed) with D167A
Protocol: as §1, §2, §3

PTP-Sap1 [4] = molecular target: T6, PTP-Sap1 (Homo sapiens, UniProt Q9HD43, D986A); assay: Panning of the tyrosine-biased phage library and sequencing of trapped clones; format: binding; conditions: after three rounds, sequenced trapped phages
T6 construct: These two restriction sites were used to clone the catalytic domain in frame into a pGEX4TK vector (Pharmacia); made in house; host or cells: Escherichia coli BL21 (codon +)
T6 sequence (Q9HD43 820-1079 D986A limits assumed): T4 sequence (Q9HD43 820-1079 limits assumed) with D167A
Protocol: as §5, §6, §7

PTP-Sap1 [5] = molecular target: T6, PTP-Sap1; assay: ELISA of phosphorylated phage clones on coated GST-PTP; format: binding; conditions: PTP-Sap1 selected phage clones, src-phosphorylated
Protocol: as §4

Sequence of SHP1 (P29350 whole entry): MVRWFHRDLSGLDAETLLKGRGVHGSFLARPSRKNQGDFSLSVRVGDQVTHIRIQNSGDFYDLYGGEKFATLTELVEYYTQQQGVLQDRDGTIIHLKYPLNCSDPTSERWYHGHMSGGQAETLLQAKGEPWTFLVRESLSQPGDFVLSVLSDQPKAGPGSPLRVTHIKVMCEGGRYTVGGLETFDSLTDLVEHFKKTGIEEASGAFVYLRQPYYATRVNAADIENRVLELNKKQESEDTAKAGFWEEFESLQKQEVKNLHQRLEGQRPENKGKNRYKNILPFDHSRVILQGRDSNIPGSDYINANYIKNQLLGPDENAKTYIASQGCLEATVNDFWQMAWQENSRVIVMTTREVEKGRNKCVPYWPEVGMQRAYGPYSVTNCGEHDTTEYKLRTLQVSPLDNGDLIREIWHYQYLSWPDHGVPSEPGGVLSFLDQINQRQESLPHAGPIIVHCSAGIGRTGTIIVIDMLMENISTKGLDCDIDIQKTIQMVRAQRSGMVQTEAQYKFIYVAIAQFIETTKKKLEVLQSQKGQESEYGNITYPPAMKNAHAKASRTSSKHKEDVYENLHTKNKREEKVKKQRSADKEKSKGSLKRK

- SPOT binding to PTP-Sap1 R88N (PTP-Sap1 R88N): strongest signals
Compound: EFGATpYGVYTSDPAK (EFGAT[pY]GVYTSDPAK) [Sm-2]

- SPOT binding to PTP-Sap1 R88N (PTP-Sap1 R88N): strongest signals
Compound: EFIpYGSFHQTADPAK (EFI[pY]GSFHQTADPAK) [Sm-15]

- SPOT binding to PTP-Sap1 R88N (PTP-Sap1 R88N): did not bind
- SPOT binding to PTP-Sap1 R88N (PTP-Sap1 R88N; listed as sm-8): not recognized
Compound: EFLpYANVERSSDPAK (EFL[pY]ANVERSSDPAK) [Sm-8]

- Km (Sap1): 7 µM
Compound: EFpYGAFA/G (chain 1 EF[pY]GAFA; chain 2 EF[pY]GAFG)

- SPOT binding to PTP-Sap1DA, doubly phosphorylated (PTP-Sap1DA; doubly phosphorylated sequence): weaker signal
- Copy in the pool (PTP-Sap1 [4]): 2X
- ELISA (PTP-Sap1 [5]): strongest
Compound: EFpYGAYSNADLDPAK (EF[pY]GAYSNADLDPAK) [x5]

- ELISA (PTP-Sap1 [5]): recognized in ELISA
Compound: EFpYGPVASDASDPAK (EF[pY]GPVASDASDPAK) [x58]

- SPOT binding to PTP-Sap1 R88N (PTP-Sap1 R88N): strongest signals
Compound: EFpYGQIGDHLVDPAK (EF[pY]GQIGDHLVDPAK) [Sm-11]

- Copy in the pool (PTP-Sap1 [4]): 3X
Compound: EFpYGTFAQSAEDPAK (EF[pY]GTFAQSAEDPAK) [x9]

- Copy in the pool (PTP1B trapping mutant [3]): 2×
Compound: EFpYGTYRGQDSDPAK (EF[pY]GTYRGQDSDPAK) [Clone 1b-14]

The remaining lines, values behind:

Compound: O.O.O.O.O.O.O.O.O.O=C([O-])[C@@H]1[O][Sb]2([O-])([O][Sb]34([OH])[O][C@H]([C@H](O)CO)[C@H]([O]3)[C@H](C(=O)[O-])[O]4)[O][C@H]([C@H](O)CO)[C@@H]1[O]2.[Na+].[Na+].[Na+] [sodium stibogluconate]
- Inhibition of SHP1 (SHP1): strongly inhibits

Compound: EFATpYEEYALMDPAK (EFAT[pY]EEYALMDPAK) [Clone 1b-12]
- SPOT binding to PTP1B trapping mutant, double phosphorylated peptide [1]: did not seem to react as well as single ones

Compound: EFEPIpYNAYQVDPAK (EFEPI[pY]NAYQVDPAK) [Clone 1b-6]
- SPOT binding to PTP1B trapping mutant [1]: All except two sequences (1b-6 and 1b11) were recognized

Compound: EFQSPVpYGNFADPAK (EFQSPV[pY]GNFADPAK) [Clone 1b-11]
- SPOT binding to PTP1B trapping mutant [1]: All except two sequences (1b-6 and 1b11) were recognized

Compound: EFQpYZGEYTRGDPAK (EFQ[pY]XGEYTRGDPAK; not fully specified (residue 5)) [Clone 1b-4]
- SPOT binding to PTP1B trapping mutant [1]: confirmed in SPOT; also recorded: best substrate in this assay
- SPOT binding to PTP1B trapping mutant, double phosphorylated peptide [1]: binding became more efficient
- ELISA (PTP1B trapping mutant [2]): not found in ELISA

Compound: EFpYATYGSAATDPAK (EF[pY]ATYGSAATDPAK) [Clone 1b-1]
- SPOT binding to PTP1B trapping mutant, double phosphorylated peptide [1]: did not seem to react as well as single ones
- Copy in the pool (PTP1B trapping mutant [3]): 4×
- Dephosphorylation of displayed peptide (GST fusion) by WT PTP1B (WT PTP1B): can dephosphorylate the displayed peptide

Compound: EFpYGQFpYGPPQDPAK (EF[pY]GQF[pY]GPPQDPAK) [x2]
- SPOT binding to PTP-Sap1DA (PTP-Sap1DA; 15-mer peptides with phosphotyrosine on membrane): comparable SPOT results for both phosphorylated Tyrosines

Compound: EFpYGTFAPKPLDPAK (EF[pY]GTFAPKPLDPAK) [Clone 1b-13]
- SPOT binding to PTP1B trapping mutant [1]: signal is weaker

Compound: EFpYNLYEGVMSDPAK (EF[pY]NLYEGVMSDPAK) [Clone 1b-9]
- SPOT binding to PTP1B trapping mutant [1]: confirmed in SPOT
- ELISA (PTP1B trapping mutant [2]): not found in ELISA
